Experimental data published in article PMC10786891, “Massively parallel profiling of RNA-targeting CRISPR-Cas13d”.

T1: EsCas13d, nuclease-dead (Eubacterium siraeum, UniProt B0MS50, R295A;H300A;R849A;H854A)
T1 sequence: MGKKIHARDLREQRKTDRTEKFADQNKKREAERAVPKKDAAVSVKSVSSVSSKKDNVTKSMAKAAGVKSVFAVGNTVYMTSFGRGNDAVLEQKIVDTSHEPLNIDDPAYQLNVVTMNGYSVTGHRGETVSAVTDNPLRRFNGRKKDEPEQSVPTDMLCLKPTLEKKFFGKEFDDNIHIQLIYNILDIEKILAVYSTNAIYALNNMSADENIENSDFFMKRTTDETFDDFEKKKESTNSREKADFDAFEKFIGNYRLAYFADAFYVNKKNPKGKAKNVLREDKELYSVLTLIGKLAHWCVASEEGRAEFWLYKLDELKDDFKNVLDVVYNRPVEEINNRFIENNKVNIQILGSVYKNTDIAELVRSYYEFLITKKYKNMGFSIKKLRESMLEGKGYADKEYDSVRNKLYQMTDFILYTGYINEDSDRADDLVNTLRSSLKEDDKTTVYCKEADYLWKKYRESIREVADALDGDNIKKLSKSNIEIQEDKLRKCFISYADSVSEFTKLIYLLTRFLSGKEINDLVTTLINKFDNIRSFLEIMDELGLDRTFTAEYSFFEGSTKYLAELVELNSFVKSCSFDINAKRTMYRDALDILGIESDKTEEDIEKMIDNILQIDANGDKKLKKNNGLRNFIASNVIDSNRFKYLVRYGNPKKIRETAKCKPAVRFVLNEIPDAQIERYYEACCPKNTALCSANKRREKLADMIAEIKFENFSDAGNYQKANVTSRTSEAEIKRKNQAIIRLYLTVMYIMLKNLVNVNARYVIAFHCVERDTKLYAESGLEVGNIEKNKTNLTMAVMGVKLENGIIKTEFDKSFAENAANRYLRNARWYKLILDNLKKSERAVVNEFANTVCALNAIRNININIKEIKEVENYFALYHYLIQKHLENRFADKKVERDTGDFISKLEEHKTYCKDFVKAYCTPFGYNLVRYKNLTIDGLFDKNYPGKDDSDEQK

B1: target 2 MT 5'PFS AGC 3'PFS AGC (mixed)
RNA 1: CACCCGUGCAAAAUUGCAGGGGUCUAAAACCUUCUCCAAAUUGUUUCAUCCU
RNA 2: GGGAAUGGAUCCACAUCUACGAAUUCAGCAGGAUGAAACAAUUUGGAGAAGAGCAGAUCGGAAGAGCACACGU
B2: target 2 MT 5'PFS AUG 3'PFS CGA (mixed)
RNA 1: CACCCGUGCAAAAUUGCAGGGGUCUAAAACCUUCUCCAAAUUGUUUCAUCCU
RNA 2: GGGAAUGGAUCCACAUCUACGAAUUCAUGAGGAUGAAACAAUUUGGAGAAGCGAAGAUCGGAAGAGCACACGU
B3: target 2 MT 5'PFS GUU 3'PFS AGG (mixed)
RNA 1: CACCCGUGCAAAAUUGCAGGGGUCUAAAACCUUCUCCAAAUUGUUUCAUCCU
RNA 2: GGGAAUGGAUCCACAUCUACGAAUUCGUUAGGAUGAAACAAUUUGGAGAAGAGGAGAUCGGAAGAGCACACGU
B4: target 2 MT 5'PFS GUU 3'PFS AGA (mixed)
RNA 1: CACCCGUGCAAAAUUGCAGGGGUCUAAAACCUUCUCCAAAUUGUUUCAUCCU
RNA 2: GGGAAUGGAUCCACAUCUACGAAUUCGUUAGGAUGAAACAAUUUGGAGAAGAGAAGAUCGGAAGAGCACACGU
B5: target 2 MT 5'PFS GUU 3'PFS AGC (mixed)
RNA 1: CACCCGUGCAAAAUUGCAGGGGUCUAAAACCUUCUCCAAAUUGUUUCAUCCU
RNA 2: GGGAAUGGAUCCACAUCUACGAAUUCGUUAGGAUGAAACAAUUUGGAGAAGAGCAGAUCGGAAGAGCACACGU
B6: target 2 MT 5'PFS AUA 3'PFS CUC (mixed)
RNA 1: CACCCGUGCAAAAUUGCAGGGGUCUAAAACCUUCUCCAAAUUGUUUCAUCCU
RNA 2: GGGAAUGGAUCCACAUCUACGAAUUCAUAAGGAUGAAACAAUUUGGAGAAGCUCAGAUCGGAAGAGCACACGU
B7: target 2 MT 5'PFS AUA 3'PFS CUA (mixed)
RNA 1: CACCCGUGCAAAAUUGCAGGGGUCUAAAACCUUCUCCAAAUUGUUUCAUCCU
RNA 2: GGGAAUGGAUCCACAUCUACGAAUUCAUAAGGAUGAAACAAUUUGGAGAAGCUAAGAUCGGAAGAGCACACGU
B8: target 2 MT 5'PFS AGA 3'PFS ACU (mixed)
RNA 1: CACCCGUGCAAAAUUGCAGGGGUCUAAAACCUUCUCCAAAUUGUUUCAUCCU
RNA 2: GGGAAUGGAUCCACAUCUACGAAUUCAGAAGGAUGAAACAAUUUGGAGAAGACUAGAUCGGAAGAGCACACGU
B9: target 2 MT 5'PFS AUA 3'PFS CUG (mixed)
RNA 1: CACCCGUGCAAAAUUGCAGGGGUCUAAAACCUUCUCCAAAUUGUUUCAUCCU
RNA 2: GGGAAUGGAUCCACAUCUACGAAUUCAUAAGGAUGAAACAAUUUGGAGAAGCUGAGAUCGGAAGAGCACACGU
B10: target 2 MT 5'PFS GCU 3'PFS CUU (mixed)
RNA 1: CACCCGUGCAAAAUUGCAGGGGUCUAAAACCUUCUCCAAAUUGUUUCAUCCU
RNA 2: GGGAAUGGAUCCACAUCUACGAAUUCGCUAGGAUGAAACAAUUUGGAGAAGCUUAGAUCGGAAGAGCACACGU
B11: target 1 C6G,C21U (mixed)
RNA 1: CACCCGUGCAAAAAUGCAGGGGUCUAAAACUGAGCGGAUAACCUCUCUAUGG
RNA 2: GGGAAUGGAUCCACAUCUACGAAUUCGUACUAUAGAGAGGUUAUCGGCUCACCGAGAUCGGAAGAGCACACGU
B12: target 2 MT 5'PFS AGC 3'PFS CAU (mixed)
RNA 1: CACCCGUGCAAAAUUGCAGGGGUCUAAAACCUUCUCCAAAUUGUUUCAUCCU
RNA 2: GGGAAUGGAUCCACAUCUACGAAUUCAGCAGGAUGAAACAAUUUGGAGAAGCAUAGAUCGGAAGAGCACACGU
B13: target 2 MT 5'PFS AGA 3'PFS ACG (mixed)
RNA 1: CACCCGUGCAAAAUUGCAGGGGUCUAAAACCUUCUCCAAAUUGUUUCAUCCU
RNA 2: GGGAAUGGAUCCACAUCUACGAAUUCAGAAGGAUGAAACAAUUUGGAGAAGACGAGAUCGGAAGAGCACACGU
B14: target 2 MT 5'PFS ACC 3'PFS CUA (mixed)
RNA 1: CACCCGUGCAAAAUUGCAGGGGUCUAAAACCUUCUCCAAAUUGUUUCAUCCU
RNA 2: GGGAAUGGAUCCACAUCUACGAAUUCACCAGGAUGAAACAAUUUGGAGAAGCUAAGAUCGGAAGAGCACACGU
B15: target 2 MT 5'PFS AGA 3'PFS ACC (mixed)
RNA 1: CACCCGUGCAAAAUUGCAGGGGUCUAAAACCUUCUCCAAAUUGUUUCAUCCU
RNA 2: GGGAAUGGAUCCACAUCUACGAAUUCAGAAGGAUGAAACAAUUUGGAGAAGACCAGAUCGGAAGAGCACACGU
B16: target 2 MT 5'PFS AGA 3'PFS ACA (mixed)
RNA 1: CACCCGUGCAAAAUUGCAGGGGUCUAAAACCUUCUCCAAAUUGUUUCAUCCU
RNA 2: GGGAAUGGAUCCACAUCUACGAAUUCAGAAGGAUGAAACAAUUUGGAGAAGACAAGAUCGGAAGAGCACACGU
B17: target 2 MT 5'PFS AUA 3'PFS CUU (mixed)
RNA 1: CACCCGUGCAAAAUUGCAGGGGUCUAAAACCUUCUCCAAAUUGUUUCAUCCU
RNA 2: GGGAAUGGAUCCACAUCUACGAAUUCAUAAGGAUGAAACAAUUUGGAGAAGCUUAGAUCGGAAGAGCACACGU
B18: target 2 MT 5'PFS AGC 3'PFS CAG (mixed)
RNA 1: CACCCGUGCAAAAUUGCAGGGGUCUAAAACCUUCUCCAAAUUGUUUCAUCCU
RNA 2: GGGAAUGGAUCCACAUCUACGAAUUCAGCAGGAUGAAACAAUUUGGAGAAGCAGAGAUCGGAAGAGCACACGU
B19: target 2 MT 5'PFS AAU 3'PFS CGC (mixed)
RNA 1: CACCCGUGCAAAAUUGCAGGGGUCUAAAACCUUCUCCAAAUUGUUUCAUCCU
RNA 2: GGGAAUGGAUCCACAUCUACGAAUUCAAUAGGAUGAAACAAUUUGGAGAAGCGCAGAUCGGAAGAGCACACGU
B20: target 2 MT 5'PFS AGC 3'PFS CAA (mixed)
RNA 1: CACCCGUGCAAAAUUGCAGGGGUCUAAAACCUUCUCCAAAUUGUUUCAUCCU
RNA 2: GGGAAUGGAUCCACAUCUACGAAUUCAGCAGGAUGAAACAAUUUGGAGAAGCAAAGAUCGGAAGAGCACACGU
B21: target 2 MT 5'PFS AGC 3'PFS CAC (mixed)
RNA 1: CACCCGUGCAAAAUUGCAGGGGUCUAAAACCUUCUCCAAAUUGUUUCAUCCU
RNA 2: GGGAAUGGAUCCACAUCUACGAAUUCAGCAGGAUGAAACAAUUUGGAGAAGCACAGAUCGGAAGAGCACACGU
B22: target 1 U3G,C7U (mixed)
RNA 1: CACCCGUGCAAAAAUGCAGGGGUCUAAAACUGAGCGGAUAACCUCUCUAUGG
RNA 2: GGGAAUGGAUCCACAUCUACGAAUUCGUACCAUAGAGAGGUUAUUCGCGCACCGAGAUCGGAAGAGCACACGU
B23: target 2 MT 5'PFS AAU 3'PFS CGG (mixed)
RNA 1: CACCCGUGCAAAAUUGCAGGGGUCUAAAACCUUCUCCAAAUUGUUUCAUCCU
RNA 2: GGGAAUGGAUCCACAUCUACGAAUUCAAUAGGAUGAAACAAUUUGGAGAAGCGGAGAUCGGAAGAGCACACGU
B24: target 2 MT 5'PFS GAU 3'PFS UUA (mixed)
RNA 1: CACCCGUGCAAAAUUGCAGGGGUCUAAAACCUUCUCCAAAUUGUUUCAUCCU
RNA 2: GGGAAUGGAUCCACAUCUACGAAUUCGAUAGGAUGAAACAAUUUGGAGAAGUUAAGAUCGGAAGAGCACACGU
B25: target 2 MT 5'PFS UUA 3'PFS CCG (mixed)
RNA 1: CACCCGUGCAAAAUUGCAGGGGUCUAAAACCUUCUCCAAAUUGUUUCAUCCU
RNA 2: GGGAAUGGAUCCACAUCUACGAAUUCUUAAGGAUGAAACAAUUUGGAGAAGCCGAGAUCGGAAGAGCACACGU
B26: target 2 MT 5'PFS CUU 3'PFS AAU (mixed)
RNA 1: CACCCGUGCAAAAUUGCAGGGGUCUAAAACCUUCUCCAAAUUGUUUCAUCCU
RNA 2: GGGAAUGGAUCCACAUCUACGAAUUCCUUAGGAUGAAACAAUUUGGAGAAGAAUAGAUCGGAAGAGCACACGU
B27: target 2 MT 5'PFS UUA 3'PFS CCA (mixed)
RNA 1: CACCCGUGCAAAAUUGCAGGGGUCUAAAACCUUCUCCAAAUUGUUUCAUCCU
RNA 2: GGGAAUGGAUCCACAUCUACGAAUUCUUAAGGAUGAAACAAUUUGGAGAAGCCAAGAUCGGAAGAGCACACGU
B28: target 2 MT 5'PFS CUU 3'PFS AAG (mixed)
RNA 1: CACCCGUGCAAAAUUGCAGGGGUCUAAAACCUUCUCCAAAUUGUUUCAUCCU
RNA 2: GGGAAUGGAUCCACAUCUACGAAUUCCUUAGGAUGAAACAAUUUGGAGAAGAAGAGAUCGGAAGAGCACACGU

target: T1, EsCas13d, nuclease-dead; test: crRNA (strand 1, pre-loaded); Mg2+; 40 mM Tris-HCl pH 7.5, 150 mM NaCl, 6 mM MgCl2, 1 mM DTT, 0.1% Tween-20, 0.2 mg/ml BSA; 25 C; 10 min per concentration, then washed; conditions: tags: His6-TwinStrep-SUMO cleaved; N-terminal SNAP kept (SNAP-Surface 488); label: 3' end held by stalled T7 RNA polymerase

Point of comparison: B1, Kd 7.1 ± 1.6 nM. Against it:
- B2 — within error, 9.4 ± 1 nM
- B3 — 1.8-fold higher, 12.5 ± 0.9 nM
- B4 — within 1.5-fold, 10 ± 1.1 nM
- B5 — 1.6-fold higher, 11.6 ± 1.2 nM
- B6 — 1.8-fold higher, 13 ± 4 nM
- B7 — within error, 6.1 ± 1.4 nM
- B8 — 1.6-fold higher, 11.6 ± 1.9 nM
- B9 — within error, 8.8 ± 1.6 nM
- B10 — 2.5-fold higher, 17.5 ± 3 nM
- B11 — within error, 5.38 ± 0.17 nM
- B12 — within error, 7.3 ± 1.3 nM
- B13 — within error, 10.3 ± 1.8 nM
- B14 — within error, 9.7 ± 2.5 nM
- B15 — 3-fold higher, 21 ± 9 nM
- B16 — within error, 4.6 ± 1.1 nM
- B17 — 2.8-fold higher, 20 ± 6 nM
- B18 — within error, 6.7 ± 1.1 nM
- B19 — within error, 7.3 ± 1.3 nM
- B20 — within error, 7 ± 1.8 nM
- B21 — 1.6-fold higher, 11.4 ± 2.6 nM
- B22 — within error, 5.39 ± 0.15 nM
- B23 — 1.5-fold lower, 4.6 ± 0.6 nM
- B24 — 3.2-fold higher, 23 ± 7 nM
- B25 — 5.5-fold higher, 39 ± 4 nM
- B26 — 1.7-fold lower, 4.3 ± 0.6 nM
- B27 — 4.1-fold higher, 29 ± 5 nM
- B28 — 1.7-fold lower, 4.1 ± 0.4 nM
